From patent publication US20240254227A1 (Alector, published 2024)
Substitutions are numbered along the chain they refer to.

T1: human CD300E-Fc (human)
T1 construct: hIgG1-Fc fusion; the entry is the whole fusion chain
T1 chain: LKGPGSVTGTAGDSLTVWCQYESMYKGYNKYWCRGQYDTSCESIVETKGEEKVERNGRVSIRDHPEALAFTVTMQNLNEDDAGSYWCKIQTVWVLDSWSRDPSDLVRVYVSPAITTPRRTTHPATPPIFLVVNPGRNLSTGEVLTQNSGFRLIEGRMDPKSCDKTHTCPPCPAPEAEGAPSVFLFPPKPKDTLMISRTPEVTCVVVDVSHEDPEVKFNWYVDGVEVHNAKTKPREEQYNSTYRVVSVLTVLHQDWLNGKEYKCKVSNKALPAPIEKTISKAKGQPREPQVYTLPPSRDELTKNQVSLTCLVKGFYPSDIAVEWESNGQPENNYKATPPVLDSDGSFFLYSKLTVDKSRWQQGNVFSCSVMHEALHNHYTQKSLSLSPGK

T2: murine CD300C-Fc (mouse)
T2 construct: mouse IgG2a-Fc fusion (R&D Systems); the entry is the whole fusion chain; also called mCD300C; Mouse CD300C-Fc
T2 chain: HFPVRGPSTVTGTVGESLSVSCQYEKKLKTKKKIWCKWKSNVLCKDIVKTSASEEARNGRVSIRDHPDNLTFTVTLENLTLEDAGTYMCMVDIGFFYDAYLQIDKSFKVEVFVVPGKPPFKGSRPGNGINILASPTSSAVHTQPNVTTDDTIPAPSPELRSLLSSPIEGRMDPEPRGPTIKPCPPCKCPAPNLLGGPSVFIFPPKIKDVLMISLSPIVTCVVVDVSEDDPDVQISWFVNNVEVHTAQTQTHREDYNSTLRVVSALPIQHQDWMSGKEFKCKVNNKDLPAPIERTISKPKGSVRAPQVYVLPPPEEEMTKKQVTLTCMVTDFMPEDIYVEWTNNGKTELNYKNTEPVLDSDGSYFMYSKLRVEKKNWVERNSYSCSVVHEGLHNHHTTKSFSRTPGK

T3: human CD300D-Fc (human)
T3 construct: hIgG1-Fc fusion; the entry is the whole fusion chain
T3 chain: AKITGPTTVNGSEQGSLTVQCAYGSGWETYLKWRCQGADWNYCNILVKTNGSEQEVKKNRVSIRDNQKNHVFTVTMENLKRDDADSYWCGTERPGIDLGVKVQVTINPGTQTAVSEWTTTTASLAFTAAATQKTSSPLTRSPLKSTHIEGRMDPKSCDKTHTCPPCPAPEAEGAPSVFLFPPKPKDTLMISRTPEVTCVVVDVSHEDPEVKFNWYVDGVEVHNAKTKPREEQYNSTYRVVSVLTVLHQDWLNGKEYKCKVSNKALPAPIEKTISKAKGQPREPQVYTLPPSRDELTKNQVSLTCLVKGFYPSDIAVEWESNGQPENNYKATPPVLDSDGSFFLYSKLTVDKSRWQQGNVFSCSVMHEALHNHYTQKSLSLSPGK

T4: human CD300F-Fc (human)
T4 construct: hIgG1-Fc fusion; the entry is the whole fusion chain
T4 chain: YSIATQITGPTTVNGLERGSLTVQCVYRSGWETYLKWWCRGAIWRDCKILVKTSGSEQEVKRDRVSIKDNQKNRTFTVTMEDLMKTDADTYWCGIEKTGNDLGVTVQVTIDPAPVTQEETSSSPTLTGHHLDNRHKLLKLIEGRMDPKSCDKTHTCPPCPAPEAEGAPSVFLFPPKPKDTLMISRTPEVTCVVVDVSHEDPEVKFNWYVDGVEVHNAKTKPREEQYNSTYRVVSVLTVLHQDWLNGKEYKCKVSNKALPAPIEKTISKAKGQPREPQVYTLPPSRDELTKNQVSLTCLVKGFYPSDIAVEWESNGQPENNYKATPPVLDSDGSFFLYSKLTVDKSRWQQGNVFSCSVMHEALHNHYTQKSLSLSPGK

B1: anti-CD300LB antibody CD-03 (antibody, V domains shown)
VH: EVQLQQSGPELVKPGASVKISCKASGYTFTDYYINWVRQSHGKSLECIGDINPNNGGTNYNQKFKGKATLTVDRSSNTAYMEFRSLTFDDSALYYCAAEGAYWGQGTLVTVSA
VL: not shown
B2: anti-CD300LB antibody CD-01 (antibody, V domains shown)
VH: RVQLQQSGAELVRPGASVTLSCKASGFTFTDFEMHWVKKTPVHGLEWIGAIDPESGNTAYNQKFRGKATLTADKSSSTAYMELRYLTSEDSAVYYCTPLISGADYWGQGTTLTVSS
VL: DVVMTQSPLSLPVSLGDQASISCRSSQSLVHSDGNTYLYWYLQKPGQSPKLLIYKVSNRFSGVPDRFSGSGSGTDFTFKISRVGAEDLGVYFCSQSTHVPWTFGGGTKLEII
B3: anti-CD300LB antibody CD-02 (antibody, V domains shown)
VH: QVQLQQPGAELVRPGSSVKLSCQASGYTFTNYWMHWVRQRPIQGLEWIGNIDPSDSETHYNQKFKDRATLTVDKSSSTAYMQLSSLTSEDSAVYYCARSGVYDDEGGDYWGQGTTLTVSS
VL: ENVLTQSPAIMSASPGEKVTMTCSASSSVSYIHWYQQKSSTSPKLWIYDTSKLASGVPGRFSGSGSGNSYSLTISSMETEDVATYYCFQGSGYPLTFGAGTKLELK
B4: anti-CD300LB antibody CD-05 (antibody, V domains shown)
VH: QVQLVQSGAEVKKPGASVKVSCKASGYTFSRYYINWVRQAPGQGLEWMGWINPNSGGTNYAQKFQGRVTMTRDTSTSTVYMELSSLRSEDTAVYYCTTDQLRFGKTGPYYGMDVWGQGTTVTVSS
VL: DIQMTQSPSSLSASVGDRVTITCRASQNIGTYLNWYQQKPGKAPKLLIYAASSLQSGVPSRFSGSGSGTDFTLTISSLQPEDFATYYCQQSYSDTLTFGGGTKVEIK
B5: anti-CD300LB antibody CD-12 (antibody, V domains shown)
VH: QIQLVQSGPELKKPGETVKISCKASGYTFTDYSMHWVRQAPGKGLKWMAWINTETGEATHADDFKGRFDFSLDTSASTAYLQIKNLKNEDTGIYFCVCYGSSYGMDYWGQGTSVTVSS
VL: DIVLTQSPASLPVSLGQRATISCRASKSVRTSGASYMHWYQQKPGQPPKLLIYLASNLKSGVPTRFSGSGSGTDFTLNIHPVEEEDAATYYCQHNREVPPTFGGGTKLEIK
B6: anti-CD300LB antibody CD-17 (antibody, V domains shown)
VH: QIQLVQSGPELKKPGETVKISCKASGYTLTDYSMHWVKQAPGKGLKWMGWINTETGEPRYGDDFKGRFAFSLETSASSAYLQINNLKNDDTATYFCATYGRSYGMDFWGQGTSVTVSS
VL: B5 VL with P12A, R30S, T31P, A34H, T64A, E85G, V98L, T106S
B7: anti-CD300LB antibody CD-18 (antibody, V domains shown)
VH: DVQLQESGPDLVKPSQSLSLTCTVTGYSITSGYSWHWIRQFPDNKLEWMGYILSRGDTNFNPSLKSRISITRSTSNNQFFLHFNSVTTEDTATYYCARDFFDYWGQGTTLTVSS
VL: DVLMTQTPLSLPVSLGDQASISCRSSQSIVHSNGNTYLEWYLQKPGQSPKLLIYKVSDRFSGVPDRFSGSGSGTDFTLKISRVEAEDLGVYFCFQGSHVPYTFGGGTKLEIK

Target: T1, human CD300E-Fc
Assay: SPR (Carterra LSA), antibody immobilised
How it was run: (§1)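 Mouse anti-CD300LB IgG1 antibodies were amine-coupled in a 96-spot array on an HC200M chip; Fc-fused CD300 ectodomains (human on hIgG1-Fc) flowed over as analytes at 300 nM or 600 nM in HBS-TE with 0.5 mg/ml BSA, injected in series without regeneration, with kinetics fitted by high-throughput analysis.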

Row | binding result | Binder
1 | no binding (tested: 300 nM or 600 nM) | B1
2 | no binding (tested: 300 nM or 600 nM) | B2
3 | no binding (tested: 300 nM or 600 nM) | B3
4 | no binding (tested: 300 nM or 600 nM) | B4

Target: T2, murine CD300C-Fc
Assay: SPR (Carterra LSA), antibody immobilised
How it was run: as §1

Row | binding result | Binder
5 | no binding (tested: 300 nM or 600 nM) | B5
6 | no binding (tested: 300 nM or 600 nM) | B6
7 | no binding (tested: 300 nM or 600 nM) | B7

Target: T3, human CD300D-Fc
Assay: SPR (Carterra LSA), antibody immobilised
How it was run: as §1

Row | binding result | Binder
8 | no binding (tested: 300 nM or 600 nM) | B1
9 | no binding (tested: 300 nM or 600 nM) | B2
10 | no binding (tested: 300 nM or 600 nM) | B3
11 | no binding (tested: 300 nM or 600 nM) | B4

Target: T4, human CD300F-Fc
Assay: SPR (Carterra LSA), antibody immobilised
How it was run: as §1

Row | binding result | Binder
12 | no binding (tested: 300 nM or 600 nM) | B1
13 | no binding (tested: 300 nM or 600 nM) | B2
14 | no binding (tested: 300 nM or 600 nM) | B3
15 | no binding (tested: 300 nM or 600 nM) | B4
